Experimental data from patent US20160289342A1 (Eli Lilly, published 2016).

Tests used:
murine BAFF = murine BAFF (murine, UniProt Q9WU72 127-309, limits assumed); experiment: not described
FcγIIIa (F158) receptor = FcγIIIa (F158) receptor (UniProt P08637 17-254); experiment: cell-based or functional assay
FcγIIIa (V158) receptor = FcγIIIa (V158) receptor (UniProt P08637 17-254); experiment: cell-based or functional assay
[1] = biological target: T1, recombinant human soluble BAFF (human, UniProt Q9Y275 134-285); experiment: MSD-SET with biotinylated recombinant human soluble BAFF, N=3
T1 construct: domain: soluble BAFF; also called human BAFF; soluble human BAFF trimer
Description: Binding affinity and stoichiometry of the exemplified bispecific antibody to human BAFF is measured by MSD-SET using purified recombinant human soluble BAFF (expressed from HEK293 cells). Purified recombinant BAFF is biotinylated using EZ-Link Sulfo-NHS-LC biotin reagent (Thermo Scientific, p/n. 21335).
Multi-array 96-well assay plates (Meso Scale Discovery, p/n. L15XA-3) are coated with 3.5 μg/mL of bispecific antibody and incubated overnight at 4° C. Following incubation, the plates are washed three times with PBS, then blocked using 3% Blocker A solution for 45 minutes at room temperature. The plates are then washed again with PBS. Exemplified bispecific antibody, starting at a concentration of 224 pM, is serially diluted (using 2-fold dilutions) in a V-bottom 96-well plate creating 12 different bispecific antibody concentrations. 7 pM of biotinylated recombinant BAFF is mixed with each dilution of exemplified bispecific antibody and then incubated at 37° C. for 36-48 hours (to reach equilibrium). Equilibrated samples are added to a well of the MSD multi-array 96-well assay plate previously coated with exemplified bispecific antibody; samples are mixed for 2.5 minutes, and then washed three times with PBS. […] 1× Read Buffer T (Meso Scale Discovery, p/n. R92TC-1) is added to each well and plates are read on a MSDSI6000 plate reader (Meso Scale Discovery, Rockville Md.). […]

murine BAFF, sequence (Q9WU72 127-309 limits assumed): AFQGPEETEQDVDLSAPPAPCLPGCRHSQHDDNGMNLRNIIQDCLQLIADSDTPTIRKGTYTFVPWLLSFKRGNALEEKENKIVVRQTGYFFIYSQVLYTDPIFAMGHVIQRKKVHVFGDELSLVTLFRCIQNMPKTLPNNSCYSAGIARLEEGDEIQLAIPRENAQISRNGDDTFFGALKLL
FcγIIIa (V158) receptor, sequence (P08637 17-254 F176V): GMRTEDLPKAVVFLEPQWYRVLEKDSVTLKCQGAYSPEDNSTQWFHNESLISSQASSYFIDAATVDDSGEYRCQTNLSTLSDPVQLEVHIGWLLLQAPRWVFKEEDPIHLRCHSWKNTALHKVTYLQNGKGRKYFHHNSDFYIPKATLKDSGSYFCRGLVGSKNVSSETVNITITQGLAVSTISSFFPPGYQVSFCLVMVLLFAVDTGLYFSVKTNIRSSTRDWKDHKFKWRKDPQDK
T1 sequence (Q9Y275 134-285 limits assumed): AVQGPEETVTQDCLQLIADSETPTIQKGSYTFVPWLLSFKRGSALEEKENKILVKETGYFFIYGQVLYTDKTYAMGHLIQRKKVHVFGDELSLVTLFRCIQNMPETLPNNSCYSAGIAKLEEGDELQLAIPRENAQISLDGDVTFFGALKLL
FcγIIIa (F158) receptor, sequence (P08637 17-254): as the sequence (P08637 17-254 F176V) above, with V160F counted along it

B1: exemplified bispecific antibody of Table 1 (anti-CD20 IgG1 mAb with anti-BAFF scFv linked at the N-terminus of each heavy chain) (bispecific antibody)
heavy: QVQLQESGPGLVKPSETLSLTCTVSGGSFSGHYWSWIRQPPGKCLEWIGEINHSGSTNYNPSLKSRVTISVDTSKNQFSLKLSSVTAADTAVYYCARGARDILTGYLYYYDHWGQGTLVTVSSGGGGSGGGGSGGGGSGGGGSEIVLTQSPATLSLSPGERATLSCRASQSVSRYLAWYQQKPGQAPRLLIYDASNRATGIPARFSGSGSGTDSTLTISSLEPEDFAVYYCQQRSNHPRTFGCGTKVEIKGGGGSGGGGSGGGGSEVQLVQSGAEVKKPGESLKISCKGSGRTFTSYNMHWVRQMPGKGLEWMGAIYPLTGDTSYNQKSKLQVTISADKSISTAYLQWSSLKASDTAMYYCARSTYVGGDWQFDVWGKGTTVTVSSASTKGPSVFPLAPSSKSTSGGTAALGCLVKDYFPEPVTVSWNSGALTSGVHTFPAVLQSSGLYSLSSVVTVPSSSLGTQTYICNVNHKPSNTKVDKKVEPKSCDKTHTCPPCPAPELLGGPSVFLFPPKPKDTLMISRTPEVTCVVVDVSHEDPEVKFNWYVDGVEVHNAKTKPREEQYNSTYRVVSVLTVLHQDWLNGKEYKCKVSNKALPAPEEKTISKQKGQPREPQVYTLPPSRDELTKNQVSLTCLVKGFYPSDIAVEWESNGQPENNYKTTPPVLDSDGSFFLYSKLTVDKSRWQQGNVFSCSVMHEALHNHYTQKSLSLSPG
light: EIVLTQSPGTLSLSPGERATLSCRASSSVPYIHWYQQKPGQAPRLLIYATSALASGIPDRFSGSGSGTDFTLTISRLEPEDFAVYYCQQWLSHPPTFGQGTKLEIKRTVAAPSVFIFPPSDEQLKSGTASVVCLLNNFYPREAKVQWKVDNALQSGNSQESVTEQDSKDSTYSLSSTLTLSKADYEKHKVYACEVTHQGLSSPVTKSFNRGEC
modifications: glycosylated at asparagine residue 566 of SEQ ID NO:1
notes: also called Exemplified Bispecific Ab; exemplified antibody
- fold reduction in binding as compared to human BAFF (murine BAFF): ~250 fold
- EC50 of NFAT-luciferase reporter signal (ADCC), WIL2-S + Jurkat (F158) (FcγIIIa (F158) receptor): 31.4 pM
- EC50 of NFAT-luciferase reporter signal (ADCC), WIL2-S + Jurkat (V158) (FcγIIIa (V158) receptor): 4.61 pM
- Kd [1]: 0.3 pM
